Measured values reported in article PMC10397807, “Automated simulation-based membrane protein refinement into cryo-EM data” (Biophysical Journal, 2023).

Biological target: the molecule itself
Assay: cryo-EM structure; single-particle reconstruction of maltoporin solubilized in DDM, C3 symmetry imposed, 3.0 Å

B1: maltoporin (natural protein, E. coli (endogenous in C43(DE3)), UniProt P02943 26-446, looked up)
chain: VDFHGYARSGIGWTGSGGEQQCFQTTGAQSKYRLGNECETYAELKLGQEVWKEGDKSFYFDTNVAYSVAQQNDWEATDPAFREANVQGKNLIEWLPGSTIWAGKRFYQRHDVHMIDFYYWDISGPGAGLENIDVGFGKLSLAATRSSEAGGSSSFASNNIYDYTNETANDVFDVRLAQMEINPGGTLELGVDYGRANLRDNYRLVDGASKDGWLFTAEHTQSVLKGFNKFVVQYATDSMTSQGKGLSQGSGVAFDNEKFAYNINNNGHMLRILDHGAISMGDNWDMMYVGMYQDINWDNDNGTKWWTVGIRPMYKWTPIMSTVMEIGYDNVESQRTGDKNNQYKITLAQQWQAGDSIWSRPAIRVFATYAKWDEKWGYDYTGNADNNANFGKAVPADFNGGSFGRGDSDEWTFGAQMEIWW
notes: maltoporin of Escherichia coli, endogenously expressed; native sample purified from E. coli; model fitted from PDB 1MAL and deposited as PDB 8B7V; source: endogenous, E. coli C43(DE3)
B1: binds.
